According to the Human Domainome abundance scans (Beltran et al. 2025):
± gives the uncertainty stated by the source.

B1: Homeobox expressed in ES cells 1, residues 110 to 165; numbered along this chain, Q9UBX0 (parent)
chain: RPRTAFTQNQIEVLENVFRVNCYPGIDIREDLAQKLNLEEDRIQIWFQNRRAKLKR

Variants of: B1
Experiment: abundance fitness (aPCA) (normalised: wild type 0, dead -1); higher = more abundant; growth selection in yeast, the domain comes from the species named
Settings: Homo sapiens

Abundance fitness of substitutions, site by site:
W46: Y 0.48 ± 0.26, L -0.895 ± 0.29, H -0.58 ± 0.36
I45: Y 0.019 ± 0.26
N49: Q -0.124 ± 0.37, P -0.648 ± 0.34, G -0.527 ± 0.093, D 0.044 ± 0.11, T -0.019 ± 0.11, H -0.232 ± 0.31, S -0.198 ± 0.16, W -0.471 ± 0.11, R -0.291 ± 0.14, L -0.19 ± 0.1, E 0.43 ± 0.12, M 0.052 ± 0.2, F -0.604 ± 0.41, K -0.102 ± 0.23, C -0.425 ± 0.088, I -0.46 ± 0.23, A 0.217 ± 0.13
F47: C -0.851 ± 0.28, S -0.724 ± 0.37, V -0.841 ± 0.25, I -0.449 ± 0.18, A -0.698 ± 0.17, D -0.576 ± 0.46, R -0.952 ± 0.2, E -0.942 ± 0.32, Y -0.455 ± 0.49, L -0.842 ± 0.19, G -0.855 ± 0.09, W -0.908 ± 0.44
K53: Y -0.492 ± 0.15, V -0.229 ± 0.19, T -0.115 ± 0.14, W -0.405 ± 0.16, N -0.284 ± 0.41, M -0.075 ± 0.15, E 0.176 ± 0.15, P -0.345 ± 0.29, L -0.067 ± 0.071, Q 0.267 ± 0.13, D -0.067 ± 0.26, R 0.059 ± 0.086, C -0.459 ± 0.18, S -0.017 ± 0.083, G -0.141 ± 0.079, I -0.156 ± 0.24, F -0.326 ± 0.37
R56: G 0.104 ± 0.25, V -0.171 ± 0.27, W 0.617 ± 0.15, C 0.033 ± 0.1, D 0.686 ± 0.31
R50: N -0.378 ± 0.3, T -0.236 ± 0.24, L -0.818 ± 0.38, E 0.178 ± 0.071, V -0.727 ± 0.21, G -0.782 ± 0.13, A -0.206 ± 0.083, Q 0.153 ± 0.2, M -0.38 ± 0.26, D -0.443 ± 0.22, H -0.242 ± 0.34, S -0.666 ± 0.22, K -0.39 ± 0.34, C -0.614 ± 0.3, P -0.954 ± 0.41
Q48: V -0.026 ± 0.12, P -0.658 ± 0.5, G -0.461 ± 0.092, C -0.466 ± 0.17, M -0.073 ± 0.097, S -0.001 ± 0.14, T 0.299 ± 0.14, A 0.233 ± 0.13, I -0.23 ± 0.22, R 0.142 ± 0.12, E -0.098 ± 0.12, N -0.307 ± 0.34, K 0.114 ± 0.17, H -0.287 ± 0.33
